In the supplement of paper PMC12764529:
± gives the half width of the 95% confidence interval.

Assay: folding stability dG unfold from trypsin proteolysis; higher = more stable
Procedure, shortened: (§1)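 K50 was inferred by Bayesian fitting of sequencing counts obtained after protease digestion of designed mini-proteins. Unfolding free energy was derived by comparison with a sequence-predicted unfolded-state K50 and a shared folded-state K50, for each protease or both combined. The mini-proteins were under 80 residues, had no cysteine, were carried in a PA-tagged cDNA display construct, and were kept only if AlphaFold2 dimer inter-PAE exceeded 15.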

Sequence	folding stability dG unfold [kcal/mol]
SGKKKIKIYVESIEVFEDGVVKIKVKAIFPDGSEEDVIAEIRVEPDEDGRPHLLVVIRIGDKDFLLVLDASA [r9_271_TrMRF]	2.81 ± 0.11
SGPAEGFEAELVEEYTLPETERVFVYRVTHPDGTEYVLVVVRNPDGTWEPVFVYRPDDPDALREALELLGSA [r9_1069_TrMRF]	3.11 ± 0.081
SAGPKNREIKVRIQFNGNWVEYKMPDNDLKELVKNGGLQIAGVDPEKDEIMIQIPVPPPKPDPEDGKPKSAG [r5_868_TrROS]	-0.0867 ± 0.19
SAGGSAGGSGSLEKVFTGENKIITIKYLPDGKVIITLHDPSTPKPIAVIEAKPSEIEEILKKESAGGSAGGS [r20_129_TrMRF]	1.24 ± 0.12
MKTITITVTDAPPGTVTIRVEIEREDGSTIEIEKEITVKPGDTITITLKEDEPYKIKKIEIYHNGKKIEITS [r1_70_TrROS_Hall]	2.58 ± 0.15
SAGGSMVKVEVHYDPERDLVLVTVEAPDDPELVDEFVERMKKLGAKRVEVFRFPEDGKVRILVEIGSAGGSA [r2_358_TrMRF]	3.08 ± 0.11
SAGGSAGGSMIEVVKFPNGITLEYFPETNTYRAFNPSTNTTTTFPPGVSFEEAVEAVKKGNLVSAGGSAGGS [r12_832_JUSTAS]	4.1 ± 0.091
SAGGSSKLTFKDPNSDGTYSVTYDPSTGKANVTTSNGSSATISFEGDTITLLESSSVPPSPSNPTTSSAGGS [r16_687_JUSTAS]	0.123 ± 0.047
SAGGSAMGMRPVRREFTGSGMRITVEVVESTSIPTAEIRVLDPEGRLLRERRLPAEEVEREIARLLSAGGSA [r15_940_JUSTAS]	1.34 ± 0.069
SKLPPGQPYRRVEMTITFDFKSPKELRKKIRELFGKIEVDMKHNPEDNWYTIDIWFPSPAVMDELKELIFSA [r9_764_TrROS]	3.06 ± 0.17
SAGPPVLALFTGSPEDVQELLDRLPPDFEVEVGRLPDLYVARFPPDVPPGTVLLPGADGRPAVVEVVEASAG [r5_123_TrMRF]	0.526 ± 0.041

Assay: folding stability dG unfold from chymotrypsin proteolysis; higher = more stable
Procedure, shortened: as §1

Sequence	folding stability dG unfold [kcal/mol]
SASSFPPGSTATLTVRVTDPAGTATTTLTIPLSVDPSTGKAVSLEEVYEILKELGVDPANVTITSLTVSSAG [r14_93_JUSTAS]	3.143 ± 0.024
SAGGSAGGKILVIEIEVDSPEKAVEKAKEIVKELGLPESVKIKEIVFFKEEGDKYRALVLVDLDSAGGSAGG [r6_282_TrMRF]	4.09 ± 0.095
SAGGSAGGSSLKPGQELELTLTLRVEVEVEVYENGKPVERYRVEREVRLTLRLKLPAASLEDLSAGGSAGGS [r20_14_TrROS_Hall]	5.73 ± 0.21
SAGGSASLQTSTASVSPGALEKAIEAAKAAPPGTAVSVSFGDPVVGTPRPVTLTVDSAGNLVEITGSAGGSA [r15_228_JUSTAS]	0.0446 ± 0.08
SMEITLLSTDPTPGGMTTALWETPNRKVTIFKPPSENYYIVTVEIPGTGKTKTLRFPKNVSPEEIVKKLGSA [r9_522_JUSTAS]	1.55 ± 0.091
SPQNLVRIAEIKVELKLDGKKYIITIEVYRPPDSDEVIVRVKVIDPSSDKSSPELEKIAKELEKKIEEELKS [r1_229_JUSTAS]	4.09 ± 0.1
SAGGSAGGWFYIMFPIPPGYKVEAEWKFPNGPKVKSEIHPDGPIMITIPPGMANMPDFEIKIEPSAGGSAGG [r6_237_TrROS]	3.77 ± 0.084
STLLEEAKAQAEAYLKAAGLELAPGDVVTLTVPYPGPLTLEITVHPGEKKLEITATDASTPTTHTLTFDESA [r9_426_JUSTAS]	1.16 ± 0.074
SAGGSLPPGQWIFMIQLEIEPPNGNTWPFNIMVPPDNVEEQAKEIADRLRENGLKVKIEITDVMPVSAGGSA [r2_274_TrROS]	3.5 ± 0.083
SAGGSASLEEVIESVTKPLGAKGEIDPETGVTYVQDPSGENLTLETEDGRPLKVTYEPEGKWTAVESAGGSA [r15_256_JUSTAS]	-0.199 ± 0.45
SAGGSAGGPEITIIIGNAGPIEVALKTAKEIKKILEEKGYPNVKIPILIIPFGSPEKLKEALGGSAGGSAGG [r6_476_TrMRF]	-0.0243 ± 0.32
SAGGSAGGSNPRYRIVLPISREQLEELGLTPEQVAEAIREAFPSLSPDTRFYFPEDGNLVVVGSAGGSAGGS [r12_50_TrMRF]	1.16 ± 0.012
SAGKTIVVPTEEEAEKLAKELAEETGKEVEIVKVEKEKKKDGYEVYTIKVKLKDNNKTIEIKIVRPKEKSAG [r5_173_TrROS_Hall]	1.47 ± 0.11
SAGGSAGGSTIDITLPDLDEEEIREYLKELFPDVEVTIEYDPSTNTYTLKVGGDEVVVTRLPPNSAGGSAGG [r6_609_JUSTAS]	3.43 ± 0.038
SAGGEEVILTLPDGSPVRVIPDEGTASFELPGYRVETEVLPDGRIRLTVRDPAAGALVRELDLGLLRSAGGS [r16_760_JUSTAS]	0.789 ± 0.068
SAGGSAGGSKTVYRITIYNEKTGKKLVIEIEESMSEEEKEQKIKDLLKKLLPPGAKIKIEKVPSAGGSAGGS [r20_213_TrROS_Hall]	4.44 ± 0.2
SALPPGTTVTYTFYDPATGALVTVTVTTLPDGTVRVTLTVYDPSTGETTTVTFTVDGATLDELLDFIRAGSA [r9_618_TrMRF]	5.28 ± 0.18
SAGGSSITVPYPEGYEITVEVFPNYATITTKTPSSTLTKTVSFSTPVTVKTPSDKPVTINVPSPEVSAGGSA [r2_57_JUSTAS]	0.533 ± 0.12
SAGGVVYYATFTIYDPKRKLPNGELAYEETPIYKKFDPKEIEKFIKELKDKLKKEGRKIKAEITKVLSAGGS [r8_10_JUSTAS]	1.77 ± 0.29
SAGQTITFELKDPDITPEELQKKLQKRFGMKPMNIKPVEPDPDGWRFVIEFPENGGTRTFPWEEIRELISAG [r5_550_TrROS]	1.12 ± 0.18
SAGGSAGGSAVVSVSPDGYLRLAYYPETGELRELPPDVSVEEFLEAFPDVVVLAAPVAPTPESAGGSAGGSA [r18_53_TrMRF]	1.65 ± 0.029
